In this series the test system is O=C(O)C1=C[C@@H](O)[C@@H](O)[C@H](O)C1. Kind of series: HPLC-UV of product, Michaelis-Menten. The class given is biochemical, Cichorium intybus. Particulars: acyl acceptor varied, saturating p-coumaroyl-CoA (800 μM), 50 mM phosphate pH 7.1, room temperature. From the text:
HPLC-UV of product, Michaelis-Menten on HCT2 (CiHCT2)

Regarding HCT2 (CiHCT2) (Cichorium intybus), the Km (usually the substrate concentration at which the rate is half of its maximum) came to 802 ± 63 µM; the Vmax (in general, the top rate of the reaction or transport when substrate is in excess) was determined as 18.2 µmol/min/mg; the Vmax/Km is 22800 µL/min/mg.

The record behind these values is article PMC4893494, “Identification and Characterization of Five BAHD Acyltransferases Involved in Hydroxycinnamoyl Ester Metabolism in Chicory” (Frontiers in Plant Science, 2016).
